Reference: patent publication US8715948
“Also recorded” adds a separate entry of the source.

Assays:
fibronectin = fibronectin (UniProt P02751)
fibrillin-1 = fibrillin-1 (UniProt P35555)
[1] = target: human insoluble aortic elastin (UniProt P15502)
[2] = target: human insoluble skin elastin (UniProt P15502)
Chain of human insoluble skin elastin (P15502 27-786): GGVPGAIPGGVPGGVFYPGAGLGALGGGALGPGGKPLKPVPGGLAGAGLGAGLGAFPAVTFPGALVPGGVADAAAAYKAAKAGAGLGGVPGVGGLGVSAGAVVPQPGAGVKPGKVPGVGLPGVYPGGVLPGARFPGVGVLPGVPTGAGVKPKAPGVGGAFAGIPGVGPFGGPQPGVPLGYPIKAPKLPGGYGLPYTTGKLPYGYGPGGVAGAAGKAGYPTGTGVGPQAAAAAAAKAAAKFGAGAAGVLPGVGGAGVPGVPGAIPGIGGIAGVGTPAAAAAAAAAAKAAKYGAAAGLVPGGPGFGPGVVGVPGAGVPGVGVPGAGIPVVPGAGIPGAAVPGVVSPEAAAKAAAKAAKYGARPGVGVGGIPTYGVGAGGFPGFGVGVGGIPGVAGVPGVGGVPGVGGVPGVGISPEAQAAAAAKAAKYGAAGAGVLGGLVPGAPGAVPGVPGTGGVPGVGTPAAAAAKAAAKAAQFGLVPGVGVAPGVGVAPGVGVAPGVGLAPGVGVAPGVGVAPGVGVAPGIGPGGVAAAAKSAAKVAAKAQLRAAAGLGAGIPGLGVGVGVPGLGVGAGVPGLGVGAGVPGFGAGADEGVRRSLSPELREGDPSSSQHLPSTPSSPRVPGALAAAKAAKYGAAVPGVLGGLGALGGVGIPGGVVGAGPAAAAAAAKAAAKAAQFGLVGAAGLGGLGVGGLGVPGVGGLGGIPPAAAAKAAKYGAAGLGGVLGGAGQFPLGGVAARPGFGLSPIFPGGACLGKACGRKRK

Chain of fibrillin-1 (P35555 whole entry, looked up): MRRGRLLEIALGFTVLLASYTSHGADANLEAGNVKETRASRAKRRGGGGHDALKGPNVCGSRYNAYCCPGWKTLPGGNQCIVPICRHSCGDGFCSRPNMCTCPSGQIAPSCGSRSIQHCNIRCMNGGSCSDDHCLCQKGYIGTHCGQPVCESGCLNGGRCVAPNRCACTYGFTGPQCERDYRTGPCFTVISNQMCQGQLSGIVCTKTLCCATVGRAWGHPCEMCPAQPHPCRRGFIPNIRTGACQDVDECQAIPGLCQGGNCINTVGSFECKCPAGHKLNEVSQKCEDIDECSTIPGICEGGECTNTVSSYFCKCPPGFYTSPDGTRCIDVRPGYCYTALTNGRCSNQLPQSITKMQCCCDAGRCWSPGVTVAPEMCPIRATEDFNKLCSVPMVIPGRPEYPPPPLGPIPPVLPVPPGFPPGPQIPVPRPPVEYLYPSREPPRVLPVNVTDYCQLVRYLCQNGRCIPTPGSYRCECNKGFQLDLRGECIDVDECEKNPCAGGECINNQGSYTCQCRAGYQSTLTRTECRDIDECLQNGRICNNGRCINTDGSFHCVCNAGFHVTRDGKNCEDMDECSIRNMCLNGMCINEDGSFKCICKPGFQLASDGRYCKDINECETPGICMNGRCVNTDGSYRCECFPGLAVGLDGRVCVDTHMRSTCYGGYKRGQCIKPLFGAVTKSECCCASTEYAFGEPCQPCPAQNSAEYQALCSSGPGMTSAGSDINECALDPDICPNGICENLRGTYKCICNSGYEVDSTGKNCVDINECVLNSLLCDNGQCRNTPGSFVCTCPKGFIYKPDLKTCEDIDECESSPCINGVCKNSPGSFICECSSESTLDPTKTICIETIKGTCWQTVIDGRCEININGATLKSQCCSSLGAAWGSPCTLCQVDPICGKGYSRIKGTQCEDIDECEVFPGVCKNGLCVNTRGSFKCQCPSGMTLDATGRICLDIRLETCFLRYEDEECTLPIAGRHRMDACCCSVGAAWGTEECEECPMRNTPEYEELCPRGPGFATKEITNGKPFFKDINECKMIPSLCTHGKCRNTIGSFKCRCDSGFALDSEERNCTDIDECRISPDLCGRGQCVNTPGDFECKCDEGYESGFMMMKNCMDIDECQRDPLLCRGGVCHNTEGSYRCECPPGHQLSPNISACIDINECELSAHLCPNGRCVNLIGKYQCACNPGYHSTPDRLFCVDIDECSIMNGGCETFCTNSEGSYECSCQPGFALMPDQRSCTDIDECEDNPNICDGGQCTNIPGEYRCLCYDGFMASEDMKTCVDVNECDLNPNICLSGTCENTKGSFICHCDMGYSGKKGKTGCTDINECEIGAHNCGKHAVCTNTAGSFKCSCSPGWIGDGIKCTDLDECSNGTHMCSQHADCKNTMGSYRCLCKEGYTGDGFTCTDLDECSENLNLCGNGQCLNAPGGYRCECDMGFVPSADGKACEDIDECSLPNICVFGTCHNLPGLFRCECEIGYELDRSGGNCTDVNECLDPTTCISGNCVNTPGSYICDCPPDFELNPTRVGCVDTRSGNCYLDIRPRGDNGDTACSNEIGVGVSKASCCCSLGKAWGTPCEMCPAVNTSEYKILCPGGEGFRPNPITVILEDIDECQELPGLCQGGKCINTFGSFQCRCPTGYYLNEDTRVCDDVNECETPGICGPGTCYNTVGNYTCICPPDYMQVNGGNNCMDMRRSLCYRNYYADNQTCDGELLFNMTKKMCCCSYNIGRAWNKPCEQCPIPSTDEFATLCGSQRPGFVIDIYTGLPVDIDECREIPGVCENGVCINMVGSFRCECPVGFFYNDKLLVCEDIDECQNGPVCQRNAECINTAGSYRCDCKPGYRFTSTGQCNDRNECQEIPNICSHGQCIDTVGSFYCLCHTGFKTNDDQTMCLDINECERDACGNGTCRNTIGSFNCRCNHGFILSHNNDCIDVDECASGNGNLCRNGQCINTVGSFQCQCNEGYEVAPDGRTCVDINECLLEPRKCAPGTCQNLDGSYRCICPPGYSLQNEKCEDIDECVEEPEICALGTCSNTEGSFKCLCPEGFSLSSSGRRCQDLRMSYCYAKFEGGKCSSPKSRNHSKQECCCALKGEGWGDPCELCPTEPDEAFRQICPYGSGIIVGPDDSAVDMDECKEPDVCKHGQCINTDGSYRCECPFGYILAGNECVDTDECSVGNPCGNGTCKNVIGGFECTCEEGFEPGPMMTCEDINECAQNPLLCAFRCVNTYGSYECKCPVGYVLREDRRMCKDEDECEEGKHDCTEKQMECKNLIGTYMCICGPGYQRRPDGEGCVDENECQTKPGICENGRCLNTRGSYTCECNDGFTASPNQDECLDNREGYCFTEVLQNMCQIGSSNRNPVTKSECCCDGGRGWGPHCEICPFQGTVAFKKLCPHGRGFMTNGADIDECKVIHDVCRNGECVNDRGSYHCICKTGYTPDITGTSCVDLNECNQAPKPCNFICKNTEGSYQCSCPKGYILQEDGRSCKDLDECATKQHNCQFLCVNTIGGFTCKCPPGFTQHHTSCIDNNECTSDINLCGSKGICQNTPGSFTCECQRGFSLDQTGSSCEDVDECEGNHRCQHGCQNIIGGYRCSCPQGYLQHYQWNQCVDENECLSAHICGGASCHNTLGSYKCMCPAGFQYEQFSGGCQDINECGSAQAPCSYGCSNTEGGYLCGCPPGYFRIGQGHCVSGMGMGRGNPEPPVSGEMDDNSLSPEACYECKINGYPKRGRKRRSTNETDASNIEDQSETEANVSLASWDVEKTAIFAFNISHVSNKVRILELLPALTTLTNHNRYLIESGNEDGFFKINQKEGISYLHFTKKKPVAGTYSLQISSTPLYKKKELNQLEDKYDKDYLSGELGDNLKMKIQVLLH
Chain of human insoluble aortic elastin (P15502 27-786): as the sequence (P15502 27-786) above

Substance	cleavage fragments, fibronectin Western blot of supernatants (fibronectin)	cleavage fragments, fibrillin-1 Western blot of supernatant and ECM (fibrillin-1)	radioactivity increase over background [1] [fold for aortic elastin]	radioactivity increase over background [2] [fold for skin elastin]
Granzyme A	supernatants treated with granzyme A for the indicated times were probed for fibronectin and several fragments were observed	showed fibrillin-1 cleavage fragments in the GrA supernatant, GrA ECM	–	–
Trypsin	–	showed fibrillin-1 cleavage fragments in the GrA supernatant, GrA ECM, Trypsin supernatant, and Trypsin ECM; also recorded: showed fibrillin-1 cleavage fragments in the GrB supernatant, GrB ECM, Trypsin supernatant and Trypsin ECM	–	–
elastase	–	–	7.7	14.9
